# Measurements reported in US20140023585A1, “177 LUTETIUM-LABELED BOMBESIN ANALOGS FOR RADIOTHERAPY” (UNIVERSITATSSPITAL BASEL, priority 2010, published 2014).
# Legend:
# [1] = 37° C., 5% CO2, up to 4 days of incubation
# Protocol: The mixture was incubated in a 5% CO2, 37° C. environment. At different time points, 100-μL aliquots (in triplicate) were removed and treated with 200 μL of EtOH to precipitate serum proteins. Samples were then centrifuged for 15 min at 500 rpm. […] The supernatant was analyzed with HPLC (eluents: A=0.1% trifluoroacetic acid in water and B=acetonitrile; gradient: 0 min 95% of A; 20 minutes 50% of A) to determine the stability of the peptide in serum.
# [2] = tested on: PC-3 tumors; experiment: Dosimetry by MIRD methodology from biodistribution data; format: in vivo; details: mice
# Excerpt: Doses of 150-200 Gy in the tumor could be achieved considering a maximum activity of 450 MBq to be injected per animal. Kidneys were not critical instead it was the pancreas to be the dose limiting organ. (In contrast to rodent pancreas, human pancreas expresses only very low amounts of the GRPr.)
smiles,measurement,setting,value
"CC(C)C[C@H](NC(=O)C[C@H](O)[C@H](CC(C)C)NC(=O)[C@H](Cc1c[nH]cn1)NC(=O)CNC(=O)[C@@H](NC(=O)[C@H](C)NC(=O)[C@H](Cc1c[nH]c2ccccc12)NC(=O)[C@H](CCC(N)=O)NC(=O)[C@@H](Cc1ccccc1)NC(=O)CN1CCC(NC(=O)CN2CCN(CC(=O)O)CCN(CC(=O)O)CCN(CC(=O)O)CC2)CC1)C(C)C)C(N)=O [compound 2, [^177Lu]-DOTA-4-amino-1-carboxymethylpiperidine-D-Phe-Gln-Trp-Ala-Val-Gly-His-Sta-Leu-NH2, metal not drawn]",stability in human serum,[1],remarkable stability
same,dose limiting organ,[2],pancreas
